Reference: US20230080534A1, “SEMG2 ANTIBODY AND USE THEREOF” (SHANGHAI BIOTROY BIOTECHNIQUE CO., LTD., priority 2020, published 2023)

Experiments:
[1] = target: human SEMG2 full-length protein (human) (UniProt Q02383); assay: ELISA, immobilized antigen SEMG2 (1-582)
[2] = target: SEMG2(442-453) fragment (human); assay: ELISA, immobilized antigen SEMG2 (442-453)
[3] = target: SEMG2(497-509) polypeptide … (human); assay: ELISA, immobilized antigen SEMG2 (497-509)
[4] = target: SEMG2(497-509) polypeptide … (human); assay: ELISA, immobilized peptide …
[5] = target: SEMG2(354-403) fragment (human); assay: ELISA, immobilized antigen SEMG2 (354-403)
Chain of SEMG2(354-403) fragment (human) (peptide, as listed by the source): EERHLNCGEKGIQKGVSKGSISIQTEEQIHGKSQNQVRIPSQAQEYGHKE

[6] = target: SEMG2(563-574) fragment (human); assay: ELISA, immobilized antigen SEMG2 (563-574)
[7] = target: human SEMG2 full-length protein (human) (UniProt Q02383); assay: ELISA, plate coated with SEMG2 protein; fit value printed for the flat control curve (see non_binding); the EC50 table prints no unit, the axis is log (antibody concentration, nM)

Chain of human SEMG2 full-length protein (human) (Q02383 24-582 limits assumed): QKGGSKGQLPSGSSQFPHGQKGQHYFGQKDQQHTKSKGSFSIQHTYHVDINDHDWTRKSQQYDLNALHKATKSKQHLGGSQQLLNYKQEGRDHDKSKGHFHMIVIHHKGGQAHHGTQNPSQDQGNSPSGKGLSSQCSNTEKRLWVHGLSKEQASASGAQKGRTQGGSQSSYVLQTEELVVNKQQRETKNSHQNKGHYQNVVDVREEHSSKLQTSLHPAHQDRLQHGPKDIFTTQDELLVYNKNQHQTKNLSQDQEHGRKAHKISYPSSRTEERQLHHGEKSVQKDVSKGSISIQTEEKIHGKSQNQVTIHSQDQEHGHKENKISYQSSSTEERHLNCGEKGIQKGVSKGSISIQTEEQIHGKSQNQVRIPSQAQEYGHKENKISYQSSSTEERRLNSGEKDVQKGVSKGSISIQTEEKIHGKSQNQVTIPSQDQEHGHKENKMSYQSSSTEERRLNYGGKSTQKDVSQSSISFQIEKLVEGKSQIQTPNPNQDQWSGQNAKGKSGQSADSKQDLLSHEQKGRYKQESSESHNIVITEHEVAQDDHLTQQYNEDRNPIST

## HPA042835 (rabbit polyclonal antibody against SEMG2(563-574), Sigma Aldrich)
[1]
  A450 absorbance: 1.17
[2]
  A450 absorbance: 0.002
[3]
  A450 absorbance: 0.009
[4]
  OD450 absorbance: 0.005
[5]
  A450 absorbance: 0.009
[6]
  A450 absorbance: 1.16

## HPA042767 (rabbit polyclonal antibody against SEMG2(354-403), Sigma Aldrich)
[1]
  A450 absorbance: 1.16
[2]
  A450 absorbance: 0.007
[3]
  A450 absorbance: 0.002
[4]
  OD450 absorbance: 0.005
[5]
  A450 absorbance: 1.14
[6]
  A450 absorbance: 0.011

## mIgG1 (antibody)
[7]
  EC50: 0.0885 nM
